Assay results: patent US20240425607A1, “IL-18BP ANTAGONIST ANTIBODIES AND THEIR USE IN MONOTHERAPY AND COMBINATION THERAPY IN THE TREATMENT OF CANCER” (Compugen Ltd., priority 2023, published 2024)
Residue numbers refer to the chain shown, from its start.

B1: ADI-71719: anti-IL18-BP antibody, sequences in FIG. 2B; 66670 lineage (antibody, V domains shown)
VH: QVQLVQSGAEVKKPGSSVKVSCKASGGTFNSYVISWVRQAPGQGLEWMGGIIPGAGTANYAQKFQGRVTITADESTSTAYMELSSLRSEDTAVYYCARGRHSHETWGQGTLVTVSS
VL: DIQMTQSPSSVSASVGDRVTITCRASQGISSWLAWYQQKPGKAPKLLIYAASSLQSGVPSRFSGSGSGTDFTLTISSLQPEDFATYYCQQVYSLPWTFGGGTKVEIK
B2: ADI-71728: anti-IL18-BP antibody, sequences in FIG. 2O; 66670 lineage (antibody, V domains shown)
VH: B1 VH with N30S, S31E, V33P, G54Y, A55S, N59V, S102G
VL: B1 VL with L94I
B3: ADI-71753: anti-IL18-BP antibody, sequences in FIG. 2S (antibody, V domains shown)
VH: QLQLQESGPGLVKPSETLSLTCTVSGGSIFSSDYYWSWIRQPPGKGLEWIGVIAYSGSTYYNPSLKSRVTISVDTSKNQFSLKLSSATAADTAVYYCARGPFRQVFDYWGQGTLVTVSS
VL: B1 VL with V91G, Y92S, L94F, W96Y
B4: ADI-71755: anti-IL18-BP antibody, sequences in FIG. 2T (antibody, V domains shown)
VH: B3 VH with F30S, S32P, Y35P, S37G, V52S, A54F, S58N, A87V
VL: B1 VL with V91G, Y92W, L94F, W96Y
B5: ADI-71663: anti-IL18-BP antibody, sequences in FIG. 2F; 66692 lineage (antibody, V domains shown)
VH: EVQLLESGGGLVQPGGSLRLSCAASGFTFGNTAMSWVRQAPGKGLEWVSAISANAGSTYYADSVKGRFTISRDNSKNTLYLQMNSLRAEDTAVYYCAKGPDRQVFDYWGQGTLVTVSS
VL: B1 VL with Q90H, V91A, Y92L, S93F, L94F, W96Y
B6: ADI-71741: anti-IL18-BP antibody, sequences in FIG. 2P (antibody, V domains shown)
VH: B3 VH with F30S, Y35P, S37G, V52S, A54Y, A87V, F102Y
VL: B1 VL with V91G, Y92N, L94F, W96Y
B7: ADI-71744: anti-IL18-BP antibody, sequences in FIG. 2R (antibody, V domains shown)
VH: B3 VH with F30S, D33E, Y35G, S37G, V52S, A54V, Y55N, A87V, F102Y
VL: B1 VL with V91G, Y92W, L94F, W96Y
B8: ADI-71736: anti-IL18-BP antibody, sequences in FIG. 2L; 66716 lineage (antibody, V domains shown)
VH: B3 VH with F30S, D33E, Y35G, S37G, V52S, A54V, Y55N, A87V, F102H
VL: B1 VL with L46H, V91G, Y92F, L94F, W96Y
B9: ADI-71720: anti-IL18-BP antibody, sequences in FIG. 2C; 66670 lineage (antibody, V domains shown)
VH: B1 VH with N30S, S31E
VL: B1 VL with S76G
B10: ADI-71742: anti-IL18-BP antibody, sequences in FIG. 2Q (antibody, V domains shown)
VH: B3 VH with G8S, F30S, S32P, Y35P, S37G, V52S, A54F, S58N, A87V, F102H
VL: B1 VL with V91G, Y92W, L94F, W96Y
B11: ADI-71710: anti-IL18-BP antibody, sequences in FIG. 2I; 66650 lineage (antibody, V domains shown)
VH: QVQLVQSGAEVKKPGASVKVSCKASGYTFGIYAMHWVRQAPGQRLEWMGWIHAGTGVTKYSQKFQGRVTITRDTSASTAYMELSSLRSEDTAVYYCARGLGEVGPTGTSWFDPWGQGTLVTVSS
VL: DIQMTQSPSTLSASVGDRVTITCRASQSISSWLAWYQQKPGKAPKLLIYEASSLESGVPSRFSGSGSGTEFTLTISSLQPDDFATYYCQQYRYSPFTFGGGTKVEIK
B12: ADI-71707: anti-IL18-BP antibody, sequences in FIG. 2M; 66650 lineage (antibody, V domains shown)
VH: B11 VH with G30R, I31H, V57N, K59L
VL: B11 VL with Y93L, S94G
B13: ADI-71701: anti-IL18-BP antibody, sequences in FIG. 2E; 66650 lineage (antibody, V domains shown)
VH: B11 VH with G30N, I31S, V57N
VL: B11 VL with S9P, Y93V, S94F

Tests used:
[1] = Fab Tm by dynamic scanning fluorimetry (DSF); format: physicochemical; conditions: optimized antibodies
Experimental: 10 μL of 20× Sypro Orange is added to 20 μL of 0.2-1 mg/mL mAb or Fab solution. A RT-PCR instrument (BioRad CFX96 RT PCR) is used to ramp the sample plate temperature from 40 to 95° C. at 0.5° C. increment, with 2 min equilibrate at each temperature. The negative of first derivative for the raw data is used to extract Tm.

SEC-HPLC % monomer = format: physicochemical; conditions: optimized antibodies
Experimental: A TSKgel SuperSW mAb HTP column (22855) was used for fast SEC analysis of mammalian produced mAbs at 0.4 mL/min with a cycle time of 6 min/run. 200 mM Sodium Phosphate and 250 mM Sodium Chloride was used as the mobile phase.

Molecule | Fab Tm (DSF, ° C.) [1] | SEC-HPLC, % monomer (SEC-HPLC % monomer)
B1 | 72.5 °C | 94.5%
B2 | 73.0 °C | 95.0%
B3 | 74.5 °C | 96.9%
B4 | 74.5 °C | 92.9%
B5 | 68.0 °C | 93.9%
B6 | 73.5 °C | 99.4%
B7 | 74.5 °C | 88.1%
B8 | 73.5 °C | 79.2%
B9 | 72.5 °C | 98.6%
B10 | 74.0 °C | 91.3%
B11 | 71.5 °C | 97.9%
B12 | 71.0 °C | 98.8%
B13 | 71.5 °C | 98.6%
